B1: gB183-191 peptide (HSV-1 glycoprotein B residues 183-191, …) (peptide)
peptide: GIFEDRAPV
modifications: not checked
B2: gB342-350 peptide (HSV-1 glycoprotein B residues 342-350, …) (peptide)
peptide: NLLTTPKFT
modifications: not checked

Target: soluble HLA-A*02:01 molecules (purified MHC with human β2-microglobulin) (human)
Assay: competition with radiolabeled standard peptide for soluble HLA-A*02:01

Row | Binder | Kd [nM]
1 | B1 | > 500
2 | B2 | > 500

Source: patent US20170065713A1
